From patent US20090130676

Tested on: His6-aptamers (peptide aptamers of FIGS. 4A and 4B, purified)

Substance: Cdk2/Cyclin E kinase
- phosphorylation of Histone H1 by Cdk2/Cyclin E kinase: All tested aptamers were able to inhibit phosphorylation of Histone H1 by Cdk2/Cyclin E kinase
